# Experimental data reported in the nanobody polyreactivity screen of Harvey et al. (2022).
# Assay: yeast display, Sf9 membrane polyspecificity reagent, FACS + sequencing; frameworks hold sequencing errors
# How it was run: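 Galactose-induced (36–48 hours) yeast carrying a synthetic nanobody display library were exposed to 10% biotinylated, detergent-solubilized Sf9 membrane reagent at 4 °C for 1 hour. FACS followed streptavidin microbead enrichment, using low and high (top ~1%) gates for expression (anti-HA) and reagent binding (streptavidin). Colony PCR, MiSeq 2 × 250 sequencing and CDR-length filtering followed. Labels for polyreactivity reflect the gate of origin.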
row,Sequence,polyreactivity (PSR sort gate)
1,QVQLVESGGGLVQAGGILRLSCGASGIIFDGYAMGWSRQAPGKERELVAAIDGTGDSTYYADSVKGRFTISRDNAKNTVYLQMNSLKPEDTAVYYCGAEYDYRWWYGYDYWGQGTQVTVSW,high polyreactivity
2,QVQLVESGGGLVQAGGILRLSCPASGRTFVNYAMGWYRQQPGKESELVAAITSRGGSTYYADSVKGRFTISRDNAKNSVFLQMNSLKPEDTAFYYCAAGEYYYWGQGTQVTVSS,high polyreactivity
3,QVQLVESGGGLVQAGGILRLSSAASGSIFSNYAMGWYRQAPGKERELVAAINRSGGSTYYADSVKGRFTISRDNAKNTVYLQITSLKPDDTAVYYCNAVRLYYCAGGQFQYHFWGQGTQVTVSS,high polyreactivity
4,QVQLVESGGGLVQAGGILRLSSAASGSTFFNYAMGWYRQAPGKERELVAAISSSGGRTYYADSVKGRFTISRDNAKNTVYLQMNSLKPEDTSVYYCAASGRKHGMNYWGQGTQVTVSS,high polyreactivity
5,QVQLVESGGGLVQAGGILRVSCAASGYTFLGYAMGWYRQPPGKEMELVAVISRTGGRTYYADSVKGRFTISRDNAKNTVYLQMNSLKPEDTAVYYCATEDYRGPEYDYWGQGTQVNVSS,high polyreactivity
6,QVQLVESGGGLVQAGGILSLSCAASGSTFPYNAMGWYRQAPGIERQLVAAISSGGSTYYADSVKGRFTNSRDNAKNTVYLMMNRLKPEDTAVYYCAASWGKYIRSWGYGYWGQGTLVTVSS,high polyreactivity
7,QVQLVESGGGLVQAGGILSLSCAASGSTLNSYAMGWNRPAPGKERELVAAIRWSGSSTYYADSVKGRFTISRDNAKNSVFLQMNSLKPQDTAVYYCAKGYSYGRPWDIYYYCGQGTQVTVSS,low polyreactivity
8,QVQLVESGGGLVQAGGMRRLSCAASGRTFGQYVMGWSRQAPGKERELVAAISRRGGSTYYADSVKGRFTISRDNAKNTVYLQMNSLKPEDTAVYYCAPAGTYTGGEGYLGQGTQVTVSS,high polyreactivity
9,QVQLVESGGGLVQAGGRHRLICAATGITYKSNPMGWYIQAPGTETELVAAIARRASSTYYADSVKGRFTISRDNAKNTVYLHMNSLNPEDTAVYYCNAVLPVYRTNLDYWGQGTQVTVSS,high polyreactivity
10,QVQLVESGGGLVQAGGRHRLTCAASGYTFDWYTMGWYRQAPGTERELVAAISASGVRTYYADSVKGRFTISSDNAKNSVYLQMNSLKPEDTAVYYCYRVYSTSRITEYEFDYWGQGTQVTVSS,low polyreactivity
11,QVQLVESGGGLVQAGGRLLLSCAASGSTFTHYAMGWYRQAPGKERELVPAISWGAGSTYYADSVKGRFTNSRDNAKNTVYLQMNSLKPEDTAVYYCAAYLYRYGHKYYSWGQGTQVTVSS,high polyreactivity
12,QVQLVESGGGLVQAGGRLPLSCAASGFIFGDYTMGWYRQAPGKERELVASISRRGGSTTYADSVKGRFTISRDNAMNTVYLQMNSLKPEDTAVYYCAARSRPSGSYNRHGPVDYWGQGTQVTVSS,high polyreactivity
13,QVQLVESGGGLVQAGGRLRISCAASGFTFDLYAMGWYRQAPGKERELVAAISWSGGSTRYADSVKGRFTISRDNAKNTVYLQMNSLKPEDTAVSYCARQPRLYFKGKLYGYWGQGTQVTVSS,high polyreactivity
14,QVQLVESGGGLVQAGGRLRISCAASGSIFYLYARGWYRQAPGKERELVPVITGSGGSTYYADSVKGRFTISRDNSKYTVYLQMNSLKPVDTAVYYGAADYYWGYDWGQGTQVTVSS,low polyreactivity
15,QVQLVESGGGLVQAGGRLRISCAASGSTFLDNAMGWYRQAPGKERELVASITSSGGNTYYADSVKGRFTISRDNAKNTVYLQMNRLKPEDTAVYYCAADAASYWGSNSANYDYDYWGQGTQVTVSS,low polyreactivity
16,QVQLVESGGGLVQAGGRLRISCAASVRIFGVNAMGWYRQAPGKERELVAVISSGGSTYYADSVKGRFTISRDNAKNTVYLQMNSLNPEDTAVYSCYAVVGRWFPYNLSDYWGQGTQVTVSS,low polyreactivity
17,QVQLVESGGGLVQAGGRLRLGCAASGSTYLYNAMGLYRQAPGKERELVAAISWTGGSTYYADSVKARYTISRDNAKNTVYLQMNSLKPEDTAVYYCNSLSVPDYDYWGHGTQVTVSS,high polyreactivity
18,QVQLVESGGGLVQAGGRLRLICAASARTLDRNAIGWYRQAPGEEREFVAAISSSGDSTYADSVKGRFTISRDNAKNTVYLQMNSLKPEDTAVYYCNAEEKVTYSASYFWVYDAMDHWGQGTQVTVSS,low polyreactivity
19,QVQLVESGGGLVQAGGRLRLICAASGRIYGYNTMGWYRQAPGKERDFDAAINSGGRTYYADSVKGRFTISRDNAKNTVYLQMNSLKPEDTAVYYCAAGKGRWISGLYYGARYDYWGQGTQVTVSS,high polyreactivity
20,QVQLVESGGGLVQAGGRLRLICAASGSILRYAMGWYIQAPGKERELVAAISYGGGSTYYADSVKGRFTISRDNAKNTVYLQMNSLKPEDTAVYYCNARQYVWYPYEYWGQGTQVTVSS,high polyreactivity
21,QVQLVESGGGLVQAGGRLRLNCAASVITFPYNAMGWYRQATGKERELVAAITRSGASTYYADSVKGRFTISRDNSKNTVYVQMNSLKPEDTAVYYCAAKVIGRPRPYYYWGQGTQVTVSS,high polyreactivity
22,QVQLVESGGGLVQAGGRLRLSCAASGFIFAWYAMGWYRQAPGKEMELVAAITWSAGSTYYADSVKGRFTISRDNAKNTVFLQMNSLKPEVTAVYYCAADAWYYSIYRGGDFWGQGTQVTVSS,low polyreactivity
23,QVQLVESGGGLVQAGGRLRLSCAASGFIFDSNTMGWYRQAPGKERELVAGITRRGGSTYYADSVKGRFTISRDNAKNSVYLQMNSLNPEDTAVYYCATAGTYTGGEGYWGQGTQVTVSS,high polyreactivity
24,QVQLVESGGGLVQAGGRLRLSCAASGFIFPVYAMGWYRQAPGKERELVASITTGGSTNYADSVKGRFTISRDNAKNTVYLQMNSLKPEDTAVYYCNKDTPASLANQYNYWGQGTQVTVSS,low polyreactivity
25,QVQLVESGGGLVQAGGRLRLSCAASGFIFSNYAMGWYRQAPGKERELVAAISKSGGGTSYADSVKGRFTISRDTAMNTVYLQMNSLKPEDPAGYYCAARVRQIRVDYWGQGTQVTVSS,high polyreactivity
26,QVQLVESGGGLVQAGGRLRLSCAASGFIFYYNTMGWYRQAPGKERELVAAISSGGRTYYADSVKGRFTISRDNAKNTVYLQMNSLKPEDTAVYYCNVVTYVKYGYWGQGTQVTVSS,high polyreactivity
27,QVQLVESGGGLVQAGGRLRLSCAASGFIIVYYAAMGWYRQAPGKERELVAAISSRDDSTTYADSVKGRFTISRDNAKNTVYLQMNSLKPEDTAVYYCNADLGGFYYVYAYNYWGQGTQVTVSS,low polyreactivity
28,QVQLVESGGGLVQAGGRLRLSCAASGFSFSLYGMGWYRQAPGKERELVAAIRSGGSPNYADSVKGRFTISRDNAKNTVYLQMNSLKPEDTAVYYGATDIHSVHNNRDKHDYDYWGQGTQETVSS,low polyreactivity
29,QVQLVESGGGLVQAGGRLRLSCAASGFTFNWYDMGWYRQAPGKERELVATISTGGGTNYADSVKGRFTITRYNAKNTVYLQMNSLKPEDSAVYYCAADGSAGYLWGYDFEGVYWGQGTQVTVSS,high polyreactivity
30,QVQLVESGGGLVQAGGRLRLSCAASGFTFRRYTMGWYRQAPGKERELVAVISASGGSTYYADSEKGRFTISRDNAKNTVYLQMNSLKPEDTAVYYCNAVGTPYGLDEYWGQGTQVTVSS,high polyreactivity
